This passage reports Kd, fold mean fluorescence intensity over background and fold mean fluorescence intensity over the combination m1 and m28 results from article PMC7870846, “Incorporation of sensing modalities into de novo designed fluorescence-activating proteins” (Nature Communications, 2021).

The target in assay [1] is MBP-tagged split mFAP fragment m12. The assay is described as follows: other fluorescence titration; MBP-tagged fragment titrated into its complementary MBP-tagged fragment; 25.0 uM DFHBI-1T; high-salt Tev cleavage buffer (25.0 mM Tris, 100 mM NaCl, pH 8.00); ex 468 nm, em 530 nm; estimated Kd, signal did not plateau.
For assay [2] the target is unchanged. The assay is described as follows: split reporter (BiFC, NanoBiT); protein-fragment complementation in vitro: complementary MBP-fused split mFAP fragments mixed at equimolar concentration with excess DFHBI-1T (1.00 uL of 1.25 mM in 25.0 uL); fluorescence endpoint ex 478 nm, em 520 nm; background without protein.

Some results are limits rather than exact numbers.

B1: MBP-tagged split mFAP fragment m38 (domain or fragment)
chain: YTMDIVAQGTISDGRPIVGYGKATVKTPDTLDIDITYPSLGNIKAQGQITMDSPTQFKWDATTKGENDFHGRLTGTLQRQE
modifications: here or on the partner: strands 3-8; cut assumed in loop2 (34/35); MBP omitted / strands 1-2 of mFAP2a; cut assumed in loop2 (34/35, as in cp35-34); exact limits are in Supplementary Data 1, not shown; MBP omitted
A word on the Kd: it is the equilibrium constant for the complex coming apart. As to B1, the Kd in assay [1] was above 281 µM. Besides, in assay [2], the fold mean fluorescence intensity over background turned out to be 7.34 fold; the fold mean fluorescence intensity over the combination m1 and m28 turned out to be 184 fold.
